Measurements as given in patent US20030232412.

Target: T1, His-tagged PprB
T1 chain: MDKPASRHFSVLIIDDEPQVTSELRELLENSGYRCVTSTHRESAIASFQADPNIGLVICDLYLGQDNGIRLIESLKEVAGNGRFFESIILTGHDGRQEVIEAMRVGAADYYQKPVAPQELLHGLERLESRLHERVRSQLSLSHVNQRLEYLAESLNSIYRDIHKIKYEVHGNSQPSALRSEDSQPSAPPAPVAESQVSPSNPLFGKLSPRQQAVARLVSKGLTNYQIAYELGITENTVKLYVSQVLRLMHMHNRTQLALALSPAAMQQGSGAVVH

B1: His-tagged PprA (protein)
chain: MFEFSRSSSAEAERPEPFSQEGPALWSASLRSWDLCFEMDEQDRVIRVGGRQAYRLQCAHGLGEQPRPFAEYLERRAPGAPTLAGLRRGERLDLTLRSDAAAPLTCRFQPMQPLDGLGRSLLLGMDISDLNWQSDSQQHQLQSLSLGKLILSRLRHVSHGHLAEAVQEILESLSGAFQMQAIALLLGDGKGFCTVFASHVRPGSDSLLRPPLQLADDDLREGAGARLLRRGEGASTLLRQIGEDALYLVPATMRGGRLGALLVRPMSLEQLAQGPAPQDWQYLAELLANQVADRCELHEQHDSSRKLGLLQEMIGGGWWRYWAEQELFELAPALHDSLGLTGEYRRVPLEHLQGLLQPADADELGLRLRASLRSGQALAQDLCLRQPDSRGERRWLRIEGRPLGRGSALGLSGVLLDISEGRRQEERAQAAHARLRSLIDSAPVVIYVQRVEQGHLVPEFYSESASNLLGLDLQGQSWQALAERVHPDDLEAFFARGRELLREGRVKTRYRLADGQGNWHWLYDEAKLLRDAQGLPSEAVGLWLDVTEQHLAAQRIAESEERYRVLVEDSPALICRYTADLVLTYVNRTFADSLATSPERLVGRRLDEWLAAEDASALRARLLGSPREGASEVPELRFNLPGQRFLWLVWAERPLFDARGELCEVQAVGRDNTPVRRAQQQLAQGAKMASLGEMVSGLAHEVKQPLHVLRMTLFNMRQRMNSVGLDGDYLGEKLERMDAQVLRVDRLVSHLGVFSRKSALEALPFDPYAAFEGALGLLGEGLRQHAIEVECPAPTQRMVVRGQADQLEQVIINLLANARDALLGNPGLASRRVRLEQVACREPGWVELHVHDNGGGIEPLLLERIFEPFFTTKAEGKGTGLGLSVSHDLVRNMGGSLTAANQGEGALFVVRLPLAAPAEAGG
  in vitro phosphorylation assay ([gamma-32P]ATP, SDS-PAGE, autoradiography): PprA was phosphorylated; PprB was not. Notably, however, when PprA was mixed with PprB, PprB became highly phosphorylated.
